Source: FireProtDB (doi:10.1002/pro.5560060315)

Conditions: Saccharomyces cerevisiae (strain ATCC 204508 / S288c), CD
[1] = pH 3, Thermal, acetate 0.1 M, reversible: yes (50-75%)
[2] = pH 3.25, Thermal, acetate 0.1 M, reversible: yes (50-75%)
[3] = pH 3.5, Thermal, acetate 0.1 M, reversible: yes
[4] = pH 3.75, Thermal, acetate 0.1 M, reversible: yes
[5] = pH 4, Thermal, acetate 0.1 M, reversible: yes
[6] = pH 4.25, Thermal, acetate 0.1 M, reversible: yes
[7] = pH 4.5, 25 °C, Thermal, acetate 0.1 M, reversible: yes
[8] = pH 4.5, Thermal, acetate 0.1 M, reversible: yes
[9] = pH 4.75, Thermal, acetate 0.1 M, reversible: yes
[10] = pH 5, Thermal, acetate 0.1 M, reversible: yes
[11] = pH 7.5, 25 °C, GdnHCl, Tris-HCl 20 mM, NaCl 40 mM, reversible: yes
[12] = pH 3, Thermal, acetate 0.1 M, reversible: yes, structure 1YCC
[13] = pH 3.25, Thermal, acetate 0.1 M, reversible: yes, structure 1YCC
[14] = pH 3.5, Thermal, acetate 0.1 M, reversible: yes, structure 1YCC
[15] = pH 3.75, Thermal, acetate 0.1 M, reversible: yes, structure 1YCC
[16] = pH 4, Thermal, acetate 0.1 M, reversible: yes, structure 1YCC
[17] = pH 4.25, Thermal, acetate 0.1 M, reversible: yes, structure 1YCC
[18] = pH 4.5, 25 °C, Thermal, acetate 0.1 M, reversible: yes, structure 1YCC
[19] = pH 4.5, Thermal, acetate 0.1 M, reversible: yes, structure 1YCC
[20] = pH 5, Thermal, acetate 0.1 M, reversible: yes, structure 1YCC
[21] = pH 7.5, 25 °C, GdnHCl, Tris-HCl 20 mM, NaCl 40 mM, reversible: yes, structure 1YCC
[22] = pH 3, Thermal, acetate 0.1 M, reversible: yes (50-75%), structure 1YCC
[23] = pH 4.75, Thermal, acetate 0.1 M, reversible: yes, structure 1YCC
[24] = pH 5.25, Thermal, acetate 0.1 M, reversible: yes, structure 1YCC

Cytochrome c isoform 1 K79I, P00044, sequence (P00044 whole entry K79I, canonical isoform): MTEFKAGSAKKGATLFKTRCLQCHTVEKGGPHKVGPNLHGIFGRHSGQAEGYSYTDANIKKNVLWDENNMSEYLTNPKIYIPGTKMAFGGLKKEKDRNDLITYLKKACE
Cytochrome c isoform 1 wild type, P00044, sequence (P00044 whole entry, canonical isoform): as the sequence (P00044 whole entry K79I, canonical isoform) above, with I79K counted along it
Cytochrome c isoform 1 K79V, P00044, sequence (P00044 whole entry K79V, canonical isoform): as the sequence (P00044 whole entry K79I, canonical isoform) above, with I79V counted along it

Cytochrome c isoform 1 wild type, P00044
Tm [1]: 21.5 °C
unfolding enthalpy (van 't Hoff) [1]: 39.6 kcal/mol
Tm [2]: 22.6 °C
unfolding enthalpy (van 't Hoff) [2]: 42 kcal/mol
Tm [3]: 30.7 °C
unfolding enthalpy (van 't Hoff) [3]: 54.2 kcal/mol
Tm [4]: 34.9 °C
unfolding enthalpy (van 't Hoff) [4]: 62.3 kcal/mol
Tm [5]: 40.7 °C
unfolding enthalpy (van 't Hoff) [5]: 69.8 kcal/mol
Tm [6]: 43.1 °C
unfolding enthalpy (van 't Hoff) [6]: 73.7 kcal/mol
heat capacity change of unfolding [7]: 1.4 kcal/mol/K
unfolding enthalpy (van 't Hoff) [7]: 45.4 kcal/mol
unfolding free energy [7]: 3.7 kcal/mol
Tm [8]: 45 °C
unfolding enthalpy (van 't Hoff) [8]: 73.4 kcal/mol
Tm [9]: 48.6 °C
unfolding enthalpy (van 't Hoff) [9]: 79.6 kcal/mol
Tm [10]: 52.7 °C
unfolding enthalpy (van 't Hoff) [10]: 81.9 kcal/mol
denaturant m value [11]: 4.87 kcal/mol/M
unfolding free energy [11]: 5.66 kcal/mol

Cytochrome c isoform 1 K79V, P00044
Tm [12]: 22.7 °C
change of melting temperature, mutant - wild type (higher = more stable) [12]: 1.2 °C
unfolding enthalpy (van 't Hoff) [12]: 37 kcal/mol
Tm [13]: 28.7 °C
change of melting temperature, mutant - wild type (higher = more stable) [13]: 6.1 °C
unfolding enthalpy (van 't Hoff) [13]: 46.3 kcal/mol
Tm [14]: 31.4 °C
change of melting temperature, mutant - wild type (higher = more stable) [14]: 0.7 °C
unfolding enthalpy (van 't Hoff) [14]: 47.3 kcal/mol
Tm [15]: 36.6 °C
change of melting temperature, mutant - wild type (higher = more stable) [15]: 1.7 °C
unfolding enthalpy (van 't Hoff) [15]: 58.5 kcal/mol
Tm [16]: 38.9 °C
change of melting temperature, mutant - wild type (higher = more stable) [16]: -1.8 °C
unfolding enthalpy (van 't Hoff) [16]: 60.2 kcal/mol
Tm [17]: 42.9 °C
change of melting temperature, mutant - wild type (higher = more stable) [17]: -0.2 °C
unfolding enthalpy (van 't Hoff) [17]: 64.8 kcal/mol
ddG of mutation (higher = less stable) [18]: -0.1 kcal/mol
heat capacity change of unfolding [18]: 1.5 kcal/mol/K
unfolding enthalpy (van 't Hoff) [18]: 40 kcal/mol
unfolding free energy [18]: 3.8 kcal/mol
Tm [19]: 46.7 °C
change of melting temperature, mutant - wild type (higher = more stable) [19]: 1.7 °C
unfolding enthalpy (van 't Hoff) [19]: 72.5 kcal/mol
Tm [20]: 49.5 °C
change of melting temperature, mutant - wild type (higher = more stable) [20]: -3.2 °C
unfolding enthalpy (van 't Hoff) [20]: 75.5 kcal/mol
ddG of mutation (higher = less stable) [21]: 1.38 kcal/mol
denaturant m value [21]: 4.01 kcal/mol/M
unfolding free energy [21]: 4.28 kcal/mol

Cytochrome c isoform 1 K79W, P00044
Tm [22]: 22.8 °C
change of melting temperature, mutant - wild type (higher = more stable) [22]: 1.3 °C
unfolding enthalpy (van 't Hoff) [22]: 43.5 kcal/mol
Tm [13]: 22.8 °C
change of melting temperature, mutant - wild type (higher = more stable) [13]: 0.2 °C
unfolding enthalpy (van 't Hoff) [13]: 49.8 kcal/mol
Tm [14]: 27.5 °C
change of melting temperature, mutant - wild type (higher = more stable) [14]: -3.2 °C
unfolding enthalpy (van 't Hoff) [14]: 50.5 kcal/mol
Tm [15]: 29.2 °C
change of melting temperature, mutant - wild type (higher = more stable) [15]: -5.7 °C
unfolding enthalpy (van 't Hoff) [15]: 58.6 kcal/mol
Tm [17]: 31.5 °C
change of melting temperature, mutant - wild type (higher = more stable) [17]: -11.6 °C
unfolding enthalpy (van 't Hoff) [17]: 68.5 kcal/mol
ddG of mutation (higher = less stable) [18]: 1.6 kcal/mol
heat capacity change of unfolding [18]: 1.15 kcal/mol/K
unfolding enthalpy (van 't Hoff) [18]: 51.4 kcal/mol
unfolding free energy [18]: 2.1 kcal/mol
Tm [19]: 36.1 °C
change of melting temperature, mutant - wild type (higher = more stable) [19]: -8.9 °C
unfolding enthalpy (van 't Hoff) [19]: 64.2 kcal/mol
Tm [23]: 39 °C
change of melting temperature, mutant - wild type (higher = more stable) [23]: -9.6 °C
unfolding enthalpy (van 't Hoff) [23]: 71.4 kcal/mol
Tm [20]: 47.6 °C
change of melting temperature, mutant - wild type (higher = more stable) [20]: -5.1 °C
unfolding enthalpy (van 't Hoff) [20]: 78 kcal/mol
Tm [24]: 49.3 °C
unfolding enthalpy (van 't Hoff) [24]: 76.5 kcal/mol
ddG of mutation (higher = less stable) [21]: 1.43 kcal/mol
denaturant m value [21]: 4.16 kcal/mol/M
unfolding free energy [21]: 4.23 kcal/mol

Cytochrome c isoform 1 K79I, P00044
Tm [12]: 22.3 °C
change of melting temperature, mutant - wild type (higher = more stable) [12]: 0.8 °C
unfolding enthalpy (van 't Hoff) [12]: 33 kcal/mol
Tm [13]: 26.7 °C
change of melting temperature, mutant - wild type (higher = more stable) [13]: 4.1 °C
unfolding enthalpy (van 't Hoff) [13]: 40.8 kcal/mol
Tm [14]: 31.7 °C
change of melting temperature, mutant - wild type (higher = more stable) [14]: 1 °C
unfolding enthalpy (van 't Hoff) [14]: 51.4 kcal/mol
Tm [15]: 35.5 °C
change of melting temperature, mutant - wild type (higher = more stable) [15]: 0.6 °C
unfolding enthalpy (van 't Hoff) [15]: 57.7 kcal/mol
Tm [16]: 38.7 °C
change of melting temperature, mutant - wild type (higher = more stable) [16]: -2 °C
unfolding enthalpy (van 't Hoff) [16]: 61.1 kcal/mol
Tm [17]: 41.3 °C
change of melting temperature, mutant - wild type (higher = more stable) [17]: -1.8 °C
unfolding enthalpy (van 't Hoff) [17]: 67.4 kcal/mol
Tm [19]: 45.2 °C
change of melting temperature, mutant - wild type (higher = more stable) [19]: 0.2 °C
unfolding enthalpy (van 't Hoff) [19]: 69.1 kcal/mol
Tm [23]: 46.9 °C
change of melting temperature, mutant - wild type (higher = more stable) [23]: -1.7 °C
unfolding enthalpy (van 't Hoff) [23]: 73.8 kcal/mol
Tm [20]: 47.7 °C
change of melting temperature, mutant - wild type (higher = more stable) [20]: -5 °C
unfolding enthalpy (van 't Hoff) [20]: 77.4 kcal/mol
ddG of mutation (higher = less stable) [21]: 1.19 kcal/mol
denaturant m value [21]: 4.29 kcal/mol/M
unfolding free energy [21]: 4.47 kcal/mol
